The series deals with the molecule itself. Kind of series: SEC; native mass of purified VvFrsA by size exclusion chromatography, buffer and concentration not told.

B1: Fermentation-respiration switch protein (FrsA) from Vibrio vulnificus (enzyme, UniProt Q7MN61 1-415, looked up)
chain: MSEEVSKNLSETLFVKHKQAKETSALTQYMPTSQSLLDEIKEKNGFSWYRNLRRLQWVWQGVDPIEQEQVLARIASSKHSRTDEQWLDTVMGYHSGNWAYEWTRLGMEHQKRAGEMTNEAASEALFSASLCYSIAGYPHLKSDNLAIQAQVLANSAYLEAAKKSKYIIKQLEIPFEKGKITAHLHLTNTDKPHPVVIVSAGLDSLQTDMWRLFRDHLAKHDIAMLTVDMPSVGYSSKYPLTEDYSRLHQAVLNELFSIPYVDHHRVGLIGFRFGGNAMVRLSFLEQEKIKACVILGAPIHDIFASPQKLQQMPKMYLDVLASRLGKSVVDIYSLSGQMAAWSLKVQGFLSSRKTKVPILAMSLEGDPVSPYSDNQMVAFFSTYGKAKKISSKTITQGYEQSLDLAIKWLEDELLR
notes: FrsA (fermentation-respiration switch protein) of Vibrio vulnificus; theoretical mass ca. 47 kDa; Gene cloned between NdeI and XhoI of pET-28a; also called VvFrsA; recombinant VvFrsA
For B1, the stoichiometry N (in general, a count of units in the complex or per binding partner) stood at 2.

(Values after paper PMC6450606, “Purification and biochemical characterization of FrsA protein from Vibrio vulnificus as an esterase” (PLoS ONE, 2019).)
